Earlier results on one substance are cited in PMC7811009, “Oxytocin modulates local topography of human functional connectome in healthy men at rest” (Communications Biology, 2021).

The conditions of series [1]: intravenous infusion, primates; cited from earlier work. The source says:
It is not yet clear which precise mechanisms mediate the effects of intravenous oxytocin on brain function. […] At least three mechanisms have been postulated. First, it is possible that the direct peripheral effects of oxytocin on oxytocin receptors expressed in vegetative territories, such as the heart, may be an indirect source of changes in the brain.

For series [2] the following is noted: rhesus monkeys, cited from earlier work. The source says: Our findings support our previous observations that increases in oxytocin in systemic circulation cannot fully account for the changes in rCBF observed after intranasal oxytocin[11] and lend support to the contribution of nose-to-brain pathways to the effects of intranasal oxytocin on brain function. However, they cannot highlight the precise mechanisms of transport underlying its functional effects. We believe that most evidence to date concurs on the idea that oxytocin, when administered intranasally, may diffuse from the olfactory and respiratory epithelia in the middle and upper poster ...

As for “labelled synthetic oxytocin: labelled synthetic oxytocin given intravenously or intranasally to primates / rhesus monkeys in cited studies”, the “Synthetic oxytocin levels in the CSF” value in series [1] is “increased synthetic oxytocin levels in the CSF”. The Brain regions reached entry in series [2] (administered intranasally) was “reaches several brain regions (orbitofrontal cortex, striatum, thalamus and brainstem)”. In series [2] (same doses administered intravenously), the “Labelled oxytocin in brain regions (orbitofrontal cortex, striatum, thalamus and brainstem)” value is given as “No detectable amounts”.
